± gives the standard deviation of the averaged measurements.
system: ATP; experiment: switch fluorescence ratio, 500 uM ATP over buffer (Cy3 cluster intensity, sum of 5 cycles each) (fold (ratio)); higher = stronger signal-on switching upon ATP binding; sequences stand for … in TCGTCGGCAGCGTCAGATGTGTATAAGAGACAGTTTTTTTTTTTTTTTTTTTTTTTTT…TC; settings: aptamer strand: ATP DNA aptamer (quencher-CACCTGGGGGAGTATTGCGGAGGAAGG + anchor), 100 nM annealed; ATP concentration: 500 uM
Outline: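 Clusters carrying Cy3-labelled switching strands on a modified Illumina MiSeq flow-cell were annealed to 100 nM quencher-labelled ATP aptamer and imaged in selection buffer. They were imaged again after 15 min with 500 uM ATP at 22 °C, over five buffer/ATP cycles with NaOH stripping and re-annealing in between. For each cluster, the fluorescence ratio is the summed Cy3 intensity of the target cycles divided by that of the buffer cycles, averaged per switch-domain sequence. Clusters outside 100-1000 RFU were left out.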
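Further: ATP exposure 15 min at 22 °C before imaging.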

Sequence | switch fluorescence ratio
ACAAGGTGTT | 1.2 ± 0.022
TACGTTTTTT | 1.05 ± 0.07
ATAGGTGCGG | 0.985 ± 0.021
AAGGAAGAGG | 0.984 ± 0.064
TCGGGTCCGC | 1.06 ± 0.046
GCCCTGTATT | 1.015 ± 0.0048
GATACTCGTG | 0.97 ± 0.032
TAGTCATGCG | 1.04 ± 0.026
ACTGGAGGAG | 1.01 ± 0.017
TAAGCAGACG | 0.9687 ± 0.0061
CTATTTTGGG | 0.993 ± 0.026
CATATGGTTG | 0.99 ± 0.018
TTAGGGTCAT | 0.979 ± 0.012
ACGTAGTGGC | 1.04 ± 0.02
GCCTCTGGTG | 1.33 ± 0.035
TTTTTCAAAA | 1.029 ± 0.0063
CGAAGGGGTA | 0.987 ± 0.018
CATAGTGCTT | 0.9715 ± 0.0043
AAACGGGGAG | 0.991 ± 0.021
TCTGGTAGCG | 1.02 ± 0.021
GTGAGGGTGA | 1 ± 0.011
GTTATAGGTG | 1.06 ± 0.065
CTCTGGGGTC | 1.05 ± 0.048
TTTTTAAGGG | 0.996 ± 0.032
ATTAGTAAAG | 0.9972 ± 0.0073
CTGGTAGAGG | 0.979 ± 0.048

Sequence | switch fluorescence ratio
CCGGGCGGTG | 1.04 ± 0.021
TATTTCGGGG | 1.02 ± 0.023
CGGGGTATTG | 0.999 ± 0.039
GTTAAGGTTT | 1.03 ± 0.063
CATTTCGGCG | 0.999 ± 0.044
AATGGGGAAA | 1 ± 0.028
ATTATTGGTC | 0.99 ± 0.029
TTGTAATGTT | 1.01 ± 0.051
CTGTGGGAAG | 0.995 ± 0.056
TTGGGGGCTT | 1 ± 0.039
CGGGGCTTAT | 0.9909 ± 0.0014
GAGTTGTCTT | 0.9538 ± 0.0062
ATAGTTGGTG | 0.994 ± 0.029
CCTCGGCGGT | 2.47 ± 1.7
CAGATAGGTG | 1.15 ± 0.089
TTGTACGCCA | 1.31 ± 0.19
TTCTCGGGGA | 0.9908 ± 0.0097
TGCTTATCGC | 0.995 ± 0.024
GTTGACTTGA | 1.02 ± 0.03
ATCATGCTGT | 0.9976 ± 0.0017
CGGGACATAG | 0.964 ± 0.026
GTGGTAAAAG | 0.984 ± 0.013
TGGGATTCCT | 1.03 ± 0.073
AGGATGATGT | 1.01 ± 0.032
GTTAACTGAG | 1.03 ± 0.041
GGGGGAGCGA | 0.98 ± 0.059

Sequence | switch fluorescence ratio
AGTGGGGGGG | 0.991 ± 0.049
GCGTCGGGGG | 1.01 ± 0.028
ATTGATATTG | 0.979 ± 0.011
TAGTAATGTG | 0.993 ± 0.022
AAAGGTTTTG | 1 ± 0.02
CACATCATAT | 1.04 ± 0.039
GGCTTATAGG | 1.02 ± 0.036
GAATTTTTGA | 0.991 ± 0.021
ATTTTAACGC | 1.048 ± 0.0063
GGGAAAAGA | 1.04 ± 0.018
GGGTTTGTTT | 1.02 ± 0.046
TGATGTTAGT | 1.01 ± 0.024
AATTAATAAG | 1.011 ± 0.0076
ACCAGGTCGT | 1.51 ± 0.05
TCTAGTGTCG | 1.03 ± 0.11
GGGAGTGAGA | 1.03 ± 0.035
ATCATTTTTG | 1 ± 0.025
CTGGTCTTGC | 1.04 ± 0.035
CTTACGGAGG | 1.01 ± 0.015
AGGTGGGGTC | 0.984 ± 0.016
ACCGCTTGTA | 1.05 ± 0.052
GGCATTAATT | 1.01 ± 0.048
TTTCGAGAAG | 1.05 ± 0.054
GATAGGGGAT | 0.986 ± 0.031

— the supplement of paper PMC10126150
